Results on two compounds are retold here after publication PMC3212534, “Structural-Functional Characterization and Physiological Significance of Ferredoxin-NADP^+ Reductase from Xanthomonas axonopodis pv. citri” (PLoS ONE, 2011).

For data set [1], the system named is NC(=O)C1=CN([C@@H]2O[C@H](COP(=O)(O)OP(=O)(O)OC[C@H]3O[C@@H](n4cnc5c(N)ncnc54)[C@H](OP(=O)(O)O)[C@@H]3O)[C@@H](O)[C@H]2O)C=CC1. The data set can be described thus: purified protein. The following applies: potassium ferricyanide as acceptor, 50 mM Tris-HCl pH 8.0, 30 °C.
The subject of data set [2] is NC(=O)C1=CN([C@@H]2O[C@H](COP(=O)(O)OP(=O)(O)OC[C@H]3O[C@@H](n4cnc5c(N)ncnc54)[C@H](O)[C@@H]3O)[C@@H](O)[C@H]2O)C=CC1. Description: purified protein. The following applies: 1 mM potassium ferricyanide as acceptor, 50 mM Tris-HCl pH 8.0, 30 °C.
The next data set has as its target T1, pea-FNR (Lathyrus oleraceus, UniProt P10933).
T1 construct: gene PETH; plastidic FNR; preparation not described here
T1 sequence (P10933 53-360): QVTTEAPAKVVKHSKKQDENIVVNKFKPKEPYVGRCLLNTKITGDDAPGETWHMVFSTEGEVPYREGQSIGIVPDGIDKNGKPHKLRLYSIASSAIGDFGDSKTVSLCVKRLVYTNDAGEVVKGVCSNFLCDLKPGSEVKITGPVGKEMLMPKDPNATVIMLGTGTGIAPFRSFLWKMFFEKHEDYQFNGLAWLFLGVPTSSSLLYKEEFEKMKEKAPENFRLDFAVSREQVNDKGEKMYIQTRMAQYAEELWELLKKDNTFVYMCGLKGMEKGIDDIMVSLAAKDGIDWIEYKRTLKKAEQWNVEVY
Description: UV-visible difference spectroscopy. It counts as binding. The following applies: 0.3 mM NADP+; Kd in Table 1 is quoted from reference 49.

The next data set addresses T2, Ec-FNR (Escherichia coli, UniProt P28861).
T2 construct: gene fpr; subclass II bacterial FNR; preparation not described here
T2 sequence (P28861 2-248): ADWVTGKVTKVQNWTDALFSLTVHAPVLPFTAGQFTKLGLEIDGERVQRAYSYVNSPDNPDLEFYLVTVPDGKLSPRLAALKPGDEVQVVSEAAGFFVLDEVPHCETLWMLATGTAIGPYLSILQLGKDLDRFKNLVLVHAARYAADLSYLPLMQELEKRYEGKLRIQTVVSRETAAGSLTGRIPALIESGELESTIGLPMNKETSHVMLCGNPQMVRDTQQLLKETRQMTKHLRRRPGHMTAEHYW
Description: UV-visible difference spectroscopy. It counts as binding. The settings on record: 0.3 mM NADP+; Kd in Table 1 is quoted from reference 49.

The target of the next data set is T3, Xac-FNR (Xanthomonas citri, UniProt A0AAI7ZED9).
T3 construct: gene fpr; entire coding region in pET28a, N-terminal His6 tag cut with thrombin; expressed in E. coli BL21(DE3)pLysS; FAD-containing subclass I bacterial FNR
T3 sequence (A0AAI7ZED9 entry or part of it): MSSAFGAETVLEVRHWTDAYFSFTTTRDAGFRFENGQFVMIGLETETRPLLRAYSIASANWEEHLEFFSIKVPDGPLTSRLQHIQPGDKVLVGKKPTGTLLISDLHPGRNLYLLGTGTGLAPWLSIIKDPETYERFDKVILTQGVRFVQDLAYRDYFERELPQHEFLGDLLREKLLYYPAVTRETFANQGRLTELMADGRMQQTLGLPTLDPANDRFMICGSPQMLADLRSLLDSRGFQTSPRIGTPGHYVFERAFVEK
The data set can be described thus: difference absorption spectroscopy titration. The settings on record: read-out: NADPH / K d. It counts as binding. An excerpt: difference absorption spectroscopy titration on Xac-FNR

In the case of “Xac-FNR (Xanthomonas citri subsp. citri 306)”, in data set [1], the Km was 10.8 ± 0.5 µM, the kcat came to 122 s⁻¹ and the catalytic efficiency (kcat/Km) is 1.13e+07 M⁻¹ s⁻¹. Moreover, in data set [2], the Km stood at 3300 ± 1400 µM, the kcat turned out to be 3.2 ± 1.3 s⁻¹ and the kcat/Km came out at 1000 M⁻¹ s⁻¹.

`NC(=O)c1ccc[n+]([C@@H]2O[C@H](COP(=O)(O)OP(=O)(O)OC[C@H]3O[C@@H](n4cnc5c(N)ncnc54)[C@H](OP(=O)(O)O)[C@@H]3O)[C@@H](O)[C@H]2O)c1` [NADP^+]: the UV-visible difference spectroscopy entry on pea-FNR was “Differential UV-visible spectra elicited by the interaction between the enzymes and NADP^+”; at Ec-FNR, “Differential UV-visible spectra elicited by the interaction between the enzymes and NADP^+”. Further, the Kd on Xac-FNR amounted to 9.7 ± 0.4 µM.
